The source of these data is patent US20060234944A1 (OKLAHOMA MEDICAL RESEACH FOUNDATION, published 2006).

Experiment [1] deals with T1, memapsin 1 (auto-catalytically activated promemapsin 1-T1; amino acid residues 58-461 of SEQ ID NO: 4) (Homo sapiens (Human), UniProt Q9Y5Z0 63-466).
T1 construct: also called Mep1; M1
T1 sequence: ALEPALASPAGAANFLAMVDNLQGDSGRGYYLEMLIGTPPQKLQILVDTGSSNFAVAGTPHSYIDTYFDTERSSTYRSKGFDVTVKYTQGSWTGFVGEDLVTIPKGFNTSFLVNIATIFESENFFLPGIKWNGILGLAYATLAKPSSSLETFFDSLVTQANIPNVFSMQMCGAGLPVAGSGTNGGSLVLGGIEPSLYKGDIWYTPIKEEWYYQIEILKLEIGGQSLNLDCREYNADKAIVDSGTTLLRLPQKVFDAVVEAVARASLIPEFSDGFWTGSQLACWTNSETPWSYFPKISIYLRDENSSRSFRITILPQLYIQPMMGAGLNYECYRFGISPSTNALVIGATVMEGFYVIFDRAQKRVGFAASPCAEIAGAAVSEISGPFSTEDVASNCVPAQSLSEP
Put plainly: on-bead combinatorial inhibitor library probed with memapsin 1, antibody/alkaline phosphatase staining.

Experiment [2] addresses T2, memapsin 2 (spontaneously activated promemapsin 2-T1; amino acids 43-456 and 45-456 of SEQ ID NO: 8) (human, UniProt P56817 41-454).
T2 construct: The library probing says only 'recombinant memapsin 2'; also called BACE; ASP2
As to the kind of experiment: on-bead combinatorial inhibitor library, antibody/alkaline phosphatase staining.

Experiment [3] has as its target T2, memapsin 2 (spontaneously activated …). Put plainly: inhibition of FS-2 fluorogenic substrate cleavage; paragraph 177 calls the same value Ki.
The target in experiment [4] is T1, memapsin 1 (auto-catalytically …). As to the kind of experiment: ratio of Ki apparent for memapsin 1 to Ki apparent for memapsin 2.
For experiment [5], the target named is T2, memapsin 2 (spontaneously activated …). Put plainly: enzyme inhibition kinetics.
Experiment [6] has as its target T1, memapsin 1 (auto-catalytically …). Put plainly: inhibition of FS-2 fluorogenic substrate cleavage.
Experiment [7] addresses T2, memapsin 2 (spontaneously activated …). As to the kind of experiment: on-bead combinatorial inhibitor library probed with 4 nM memapsin 2, OM99-2 wash, antibody/alkaline phosphatase staining.
For experiment [8] the target is unchanged. Put plainly: co-crystal structure.

Where no end group is shown, it is not given here. resin bead = not defined here; resin = not defined here

T2 sequence (P56817 41-454): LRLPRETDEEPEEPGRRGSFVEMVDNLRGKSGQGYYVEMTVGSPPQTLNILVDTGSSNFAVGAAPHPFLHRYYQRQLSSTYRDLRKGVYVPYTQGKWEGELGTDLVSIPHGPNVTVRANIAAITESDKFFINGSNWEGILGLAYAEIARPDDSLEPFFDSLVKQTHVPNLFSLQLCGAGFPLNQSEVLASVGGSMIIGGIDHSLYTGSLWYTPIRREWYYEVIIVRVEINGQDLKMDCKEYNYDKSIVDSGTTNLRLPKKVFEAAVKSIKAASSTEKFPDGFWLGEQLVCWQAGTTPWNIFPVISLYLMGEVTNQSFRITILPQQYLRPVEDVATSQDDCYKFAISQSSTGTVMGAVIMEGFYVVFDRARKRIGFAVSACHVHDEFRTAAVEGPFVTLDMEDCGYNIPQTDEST

B1: library bead inhibitor Gly-Ile-Phe-Leu*Ala-Val-Glu-Phe-Arg-Met-Gly-Gly-resin (peptide)
peptide: GIFLAVEFRMGG-resin
modifications: reading uncertain; also: hydroxyethylene isostere between Leu4 and Ala5, printed as Gly-Ile-Phe-Leu*Ala-Val-Glu-Phe-Arg-Met-Gly-Gly-resin
In the case of B1, the binding result in experiment [1] is listed as “binds”.

B2: library bead Neg2: Gly-Asp-Phe-Leu*Ala-(not printed)-Ser-Phe-Arg-Met-Gly-Gly-resin (peptide)
peptide: GDFLAXSFRMGG-{resin bead}
modifications: not fully specified; X: residue not identified in the source; also: hydroxyethylene isostere between Leu4 and Ala5
notes: Randomly selected negative control bead
For B2, the binding result in experiment [2] is “no binding (tested: 4 nM memapsin 2)”.

B3: library bead inhibitor Gly-Leu-Asn-Leu*Ala-Val-Glu-Phe-Arg-Met-Gly-Gly-resin (peptide)
peptide: GLNLAVEFRMGG-resin
modifications: reading uncertain; also: hydroxyethylene isostere between Leu4 and Ala5, printed as Gly-Leu-Asn-Leu*Ala-Val-Glu-Phe-Arg-Met-Gly-Gly-resin
In the case of B3, the binding result in experiment [1] was “binds”.
Take ELDLAVEF (also: hydroxyethylene isostere in place of Leu4-Ala5 peptide bond) [OM00-3 (ELDL*AVEF)]: the Ki apparent in experiment [3] is 0.31 nM. Moreover, the “Ki apparent (M1/M2)” value in experiment [4] was determined as 0.59. In addition, in experiment [5], affinity was put at a Ki of 0.3 nM, the “fold improvement of Ki over OM99-2” value is 5.2 fold and the “fold lower Ki than OM99-2” value was about 5 fold. The Ki apparent in experiment [6] was determined as 0.18 nM.

B4: library bead Neg1: Gly-Phe-Met-Leu*Ala-Asn-Arg-Phe-Arg-Met-Gly-Gly-resin (peptide)
peptide: GFMLANRFRMGG-resin
modifications: reading uncertain; also: hydroxyethylene isostere between Leu4 and Ala5, printed as Gly-Phe-Met-Leu*Ala-Asn-Arg-Phe-Arg-Met-Gly-Gly-resin
notes: as for B2
In the case of B4, the binding result in experiment [2] is “no binding (tested: 4 nM memapsin 2)”.

B5: library bead inhibitor Gly-Leu-Gln-Leu*Ala-Val-Ile-Phe-Arg-Met-Gly-Gly-resin (peptide)
peptide: GLQLAVIFRMGG-resin
modifications: reading uncertain; also: hydroxyethylene isostere between Leu4 and Ala5, printed as Gly-Leu-Gln-Leu*Ala-Val-Ile-Phe-Arg-Met-Gly-Gly-resin
Take B5: in experiment [1], the binding result is on record as “binds”.

B6: library bead inhibitor Gly-Ile-Asp-Leu*Ala-Val-Val-Phe-Arg-Met-Gly-Gly-resin (peptide)
peptide: GIDLAVVFRMGG-resin
modifications: reading uncertain; also: hydroxyethylene isostere between Leu4 and Ala5, printed as Gly-Ile-Asp-Leu*Ala-Val-Val-Phe-Arg-Met-Gly-Gly-resin
B6: the binding result in experiment [1] is reported as “binds”.

B7: library bead inhibitor Gly-Ile-Asp-Leu*Ala-Val-Asn-Phe-Arg-Met-Gly-Gly-resin (peptide)
peptide: GIDLAVNFRMGG-resin
modifications: reading uncertain; also: hydroxyethylene isostere between Leu4 and Ala5, printed as Gly-Ile-Asp-Leu*Ala-Val-Asn-Phe-Arg-Met-Gly-Gly-resin
For the molecule B7, in experiment [1], the binding result was “binds”.

B8: library bead inhibitor Gly-Leu-Asp-Leu*Ala-Val-Glu-Phe-Arg-Met-Gly-Gly-resin (peptide)
peptide: GLDLAVEFRMGG-resin
modifications: reading uncertain; also: hydroxyethylene isostere between Leu4 and Ala5, printed as Gly-Leu-Asp-Leu*Ala-Val-Glu-Phe-Arg-Met-Gly-Gly-resin
Regarding B8, the binding result in experiment [7] is reported as “binds”.

B9: library bead inhibitor Gly-Leu-Glu-Leu*Ala-Val-Glu-Phe-Arg-Met-Gly-Gly-resin (peptide)
peptide: GLELAVEFRMGG-resin
modifications: reading uncertain; also: hydroxyethylene isostere between Leu4 and Ala5, printed as Gly-Leu-Glu-Leu*Ala-Val-Glu-Phe-Arg-Met-Gly-Gly-resin
On to B9, for which, in experiment [7], the binding result is listed as “binds”.

B10: library bead inhibitor Gly-Leu-Asp-Leu*Ala-Val-Gln-Phe-Arg-Met-Gly-Gly-resin (peptide)
peptide: GLDLAVQFRMGG-resin
modifications: reading uncertain; also: hydroxyethylene isostere between Leu4 and Ala5, printed as Gly-Leu-Asp-Leu*Ala-Val-Gln-Phe-Arg-Met-Gly-Gly-resin
B10: the binding result in experiment [7] was “binds”.

B11: library bead inhibitor Gly-Leu-Phe-Leu*Ala-Val-Glu-Phe-Arg-Met-Gly-Gly-resin (peptide)
peptide: GLFLAVEFRMGG-resin
modifications: reading uncertain; also: hydroxyethylene isostere between Leu4 and Ala5, printed as Gly-Leu-Phe-Leu*Ala-Val-Glu-Phe-Arg-Met-Gly-Gly-resin
With B11, in experiment [7], the binding result is recorded as “binds”.

B12: library bead inhibitor Gly-Leu-Asp-Leu*Ala-Val-Trp-Phe-Arg-Met-Gly-Gly-resin (peptide)
peptide: GLDLAVWFRMGG-resin
modifications: reading uncertain; also: hydroxyethylene isostere between Leu4 and Ala5, printed as Gly-Leu-Asp-Leu*Ala-Val-Trp-Phe-Arg-Met-Gly-Gly-resin
Consider B12, for which the binding result in experiment [1] was “binds”.

B13: library bead inhibitor Gly-Leu-Asp-Leu*Ala-Val-Leu-Phe-Arg-Met-Gly-Gly-resin (peptide)
peptide: GLDLAVLFRMGG-resin
modifications: reading uncertain; also: hydroxyethylene isostere between Leu4 and Ala5, printed as Gly-Leu-Asp-Leu*Ala-Val-Leu-Phe-Arg-Met-Gly-Gly-resin
For B13, the binding result in experiment [1] is “binds”.

B14: library bead inhibitor Gly-Leu-Asp-Leu*Ala-Val-Lys-Phe-Arg-Met-Gly-Gly-resin (peptide)
peptide: GLDLAVKFRMGG-resin
modifications: reading uncertain; also: hydroxyethylene isostere between Leu4 and Ala5, printed as Gly-Leu-Asp-Leu*Ala-Val-Lys-Phe-Arg-Met-Gly-Gly-resin
B14: the binding result in experiment [1] is “binds”.

B15: library bead inhibitor Gly-Leu-Asp-Leu*Ala-Val-Met-Phe-Arg-Met-Gly-Gly-resin (peptide)
peptide: GLDLAVMFRMGG-resin
modifications: reading uncertain; also: hydroxyethylene isostere between Leu4 and Ala5, printed as Gly-Leu-Asp-Leu*Ala-Val-Met-Phe-Arg-Met-Gly-Gly-resin
As for B15, the binding result in experiment [1] is on record as “binds”.

B16: library bead inhibitor Gly-Leu-Asp-Leu*Ala-Val-Thr-Phe-Arg-Met-Gly-Gly-resin (peptide)
peptide: GLDLAVTFRMGG-resin
modifications: reading uncertain; also: hydroxyethylene isostere between Leu4 and Ala5, printed as Gly-Leu-Asp-Leu*Ala-Val-Thr-Phe-Arg-Met-Gly-Gly-resin
For the molecule B16, the binding result in experiment [1] is recorded as “binds”.

B17: library bead inhibitor Gly-Leu-Glu-Leu*Ala-Val-Trp-Phe-Arg-Met-Gly-Gly-resin (peptide)
peptide: GLELAVWFRMGG-resin
modifications: reading uncertain; also: hydroxyethylene isostere between Leu4 and Ala5, printed as Gly-Leu-Glu-Leu*Ala-Val-Trp-Phe-Arg-Met-Gly-Gly-resin
Regarding B17, the binding result in experiment [1] was “binds”.

B18: library bead inhibitor Gly-Leu-Glu-Leu*Ala-Val-Gln-Phe-Arg-Met-Gly-Gly-resin (peptide)
peptide: GLELAVQFRMGG-resin
modifications: reading uncertain; also: hydroxyethylene isostere between Leu4 and Ala5, printed as Gly-Leu-Glu-Leu*Ala-Val-Gln-Phe-Arg-Met-Gly-Gly-resin
As to B18, the binding result in experiment [1] and in experiment [7] was “binds” each time.

B19: library bead inhibitor Gly-Ile-Asn-Leu*Ala-Val-Leu-Phe-Arg-Met-Gly-Gly-resin (peptide)
peptide: GINLAVLFRMGG-resin
modifications: reading uncertain; also: hydroxyethylene isostere between Leu4 and Ala5, printed as Gly-Ile-Asn-Leu*Ala-Val-Leu-Phe-Arg-Met-Gly-Gly-resin
As to B19, the binding result in experiment [1] is reported as “binds”.

B20: OM99-2 (EVNL*AAEF) (peptide)
peptide: EVNXXAEF
modifications: hydroxyethylene transition-state isostere (*) in place of the peptide bond between Leu4 (P1) and Ala5 (P1′)
notes: also called EVNLΨAAEF
With B20, in experiment [8], the binding result is given as “binds”.

B21: library bead inhibitor Gly-Ile-Asp-Leu*Ala-Val-Tyr-Phe-Arg-Met-Gly-Gly-resin (peptide)
peptide: GIDLAVYFRMGG-resin
modifications: reading uncertain; also: hydroxyethylene isostere between Leu4 and Ala5, printed as Gly-Ile-Asp-Leu*Ala-Val-Tyr-Phe-Arg-Met-Gly-Gly-resin
B21: the binding result in experiment [7] is “binds”.

What is called Ki is a dissociation constant, usually derived from enzyme kinetics or from competition with a known ligand. A higher Ki goes with weaker binding.
